The record followed here is patent US20250277030A1 (Zymeworks, published 2025).

For orientation: EC50 (read off the curve) means the concentration that produces a half-maximal response.

The target of test [1] is T1, KLH (Sigma-Aldrich, H8283).
T1 construct: also called keyhole limpet hemocyanin
The experiment in a line: non-specific binding ELISA, KLH coated at 5 µg/mL, antibody at 100 nM. (In an ELISA, binding on a coated surface is turned into a signal by an enzyme label.)
Method: NS-ELISA was carried out in Corning®96-well EIA/RIA Easy Wash™ Clear Flat Bottom Polystyrene High Bind Microplate coated overnight at 4° C. with 50 μL of Heparin (Sigma, H3149) diluted with 50 mM sodium carbonate pH 9.6 to a final concentration of 250 μg/mL. The plate was incubated for 2 days at room temperature, wells that were coated with heparin were not covered to allow air dry. […] 50 μL each of insulin, KLH, dsDNA and ssDNA were added to a 96 well plate, followed by the incubation at 37° C. for 2 h. The coating materials were removed, and the plate was blocked with 200 μL of Gibco™ PBS pH7.4, 0.1% Tween®20, and incubated for 1 h at room temperature with shaking at 200 rpm. The plate was washed 3 times with Gibco™ PBS pH7.4, 0.1% Tween 20. […] Reactions were stopped after approximately 10 minutes by adding 100 μL of 1 M HCl to each well, and absorbance was read at 450 nm. Binding scores were calculated as the ratio of the ELISA signal of the antibody (antibody-treated) to the signal of a well containing buffer instead of the primary antibody (untreated). The cutoffs considered for each binding molecule (ssDNA, KLH, insulin, dsDNA and heparin) were internally calculated, based on the average of Zymeworks Inc. produced antibodies and antibodies benchmarks published in the literature.

Test [2] has as its target T2, human sodium-dependent phosphate transporter 2B (NaPi2b) (human, UniProt O95436 1-690).
T2 construct: UniProt ID is given as 095436 [sic]; also called hNaPi2b; Hu NaPi2b
T2 sequence: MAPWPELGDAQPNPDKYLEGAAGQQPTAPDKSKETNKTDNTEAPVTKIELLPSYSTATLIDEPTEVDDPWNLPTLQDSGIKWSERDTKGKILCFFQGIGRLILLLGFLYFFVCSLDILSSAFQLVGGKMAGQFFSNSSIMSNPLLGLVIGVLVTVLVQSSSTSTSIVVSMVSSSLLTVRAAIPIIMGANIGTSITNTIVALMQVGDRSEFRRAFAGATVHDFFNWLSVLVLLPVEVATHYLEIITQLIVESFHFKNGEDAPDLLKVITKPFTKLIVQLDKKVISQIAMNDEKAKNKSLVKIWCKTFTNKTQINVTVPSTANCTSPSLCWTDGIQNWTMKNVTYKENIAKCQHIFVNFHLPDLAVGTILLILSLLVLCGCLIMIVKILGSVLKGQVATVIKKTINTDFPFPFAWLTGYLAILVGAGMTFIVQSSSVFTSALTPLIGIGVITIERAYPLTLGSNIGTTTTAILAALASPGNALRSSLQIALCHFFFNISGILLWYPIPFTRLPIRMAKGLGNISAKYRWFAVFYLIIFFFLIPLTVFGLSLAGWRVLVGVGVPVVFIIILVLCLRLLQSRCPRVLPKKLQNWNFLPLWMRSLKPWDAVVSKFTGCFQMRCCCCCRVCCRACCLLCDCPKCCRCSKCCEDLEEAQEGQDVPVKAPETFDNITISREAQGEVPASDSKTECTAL
The experiment in a line: flow cytometry, IGROV-1 cells (endogenous NaPi2b), 24 h at 4 °C. The gist of the method:
(§1)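 IGROV-1 cells were incubated with test antibody for 24 hours at 4° C to prevent internalization, then stained with anti-human IgG Fc AF647 for 30 min at 4° C. AF647 geometric mean fluorescence of live cells was measured by flow cytometry and plotted per antibody.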
On the technique in general: In flow cytometry, cells or beads pass a laser one at a time.

Test [3] deals with T2, human sodium-dependent phosphate …. The experiment in a line: flow cytometry, IGROV-1 cells (endogenous NaPi2b), 24 h at 4 °C; apparent Kd. The gist of the method:
as §1

Test [4] has the same target. The experiment in a line: flow cytometry on IGROV-1 cells (endogenous NaPi2b), 24 h at 4 C, anti-human IgG Fc AF647 detection. The procedure: (§2) Briefly, cells were seeded at 50,000 cells/well in conical-bottom 96-well plates and treated with test antibody for 24 hours at 4° C. to prevent internalization. […] Following incubation, cells were washed and stained with anti-Human IgG Fc AF647 conjugate (Jackson Immuno Research Labs, West Grove, PA; Cat. No. 109-605-098) at 4° C. for 30 min. Following incubation and washing, fluorescence was detected by flow cytometry on a BD LSRFortessa™ Cell Analyzer (BD Biosciences, Franklin Lake, NJ) with 1,000 minimum events collected per well. The AF647/APC-A GeoMean (fluorescence signal geometric mean, proportional to anti-Human AF647 binding) was calculated for the live cell population using FlowJo™ Version 10.8.1 (BD Biosciences, Franklin Lake, NJ) and plotted for each test antibody using GraphPad Prism Version 9 (GraphPad Software, San Diego, CA).
(§3) The ability of the humanized antibody variants v38591 and v29456 to bind to NaPi2b expressed on cells was assessed on endogenous NaPi2b-expressing tumor cell lines IGROV-1 (ovarian adenocarcinoma) and TOV-21G (ovarian carcinoma) by flow cytometry.
(§4) Cellular binding was performed according to methods described in Example 13.

Test [5] shares this target. The test can be described thus: flow cytometry on TOV-21G cells (endogenous NaPi2b), 24 h at 4 C, anti-human IgG Fc AF647 detection. The procedure: as §2, §3, §4
For test [6] the target is unchanged. The experiment in a line: flow cytometry, TOV-21G cells (endogenous NaPi2b); apparent Kd. The procedure: as §2, §3, §4
The target is the same in test [7]. The experiment in a line: flow cytometry, IGROV-1 cells (endogenous NaPi2b); apparent Kd. As for the experimental part: as §2, §3, §4
Test [8] has the same target. The experiment in a line: flow cytometry, HEK293-6e cells transfected with human NaPi2b; apparent Kd. As for the experimental part:
The binding cross-reactivity of humanized antibody variant v38591 to human NaPi2b, NaPi2a, and NaPi2c was assessed by flow cytometry using HEK293-6e transfected cells.
Following transfection, cells were seeded at 50,000 cells/well in conical-bottom 96-well plates and treated with test antibody for 24 hours at 4° C. to prevent internalization. Following incubation, cells were washed and stained with anti-Human IgG Fc AF647 conjugate (Jackson Immuno Research Labs, West Grove, PA; Cat. No. 109-605-098) or anti-Rabbit IgG F(ab″)2 AF647 conjugate (Jackson Immuno Research Labs, West Grove, PA; Cat. No. 111-605-047). Following incubation and washing, fluorescence was detected by flow cytometry on a BD LSRFortessa™ Cell Analyzer (BD Biosciences, Franklin Lake, NJ) with 1,000 minimum events collected per well. The AF647/APC-A GeoMean (fluorescence signal geometric mean, proportional to anti-Human AF647 binding) was calculated for the live cell population using FlowJo™ Version 10.8.1 (BD Biosciences, Franklin Lake, NJ) and plotted for each test antibody using GraphPad Prism Version 9 (GraphPad Software, San Diego, CA).

A further test concerns the target T3, FcgR1A (human, UniProt P12314 16-374).
T3 construct: whole, on cells
The test can be described thus: Membrane Proteome Array screen, flow cytometry on HEK293T cells each expressing one of over 6000 human membrane proteins.

The target in a further test is T4, mouse NaPi2b (mouse, UniProt Q9DBP0 1-697).
T4 construct: Transiently expressed on HEK293-6e cells; also called Ms NaPi2b
T4 sequence: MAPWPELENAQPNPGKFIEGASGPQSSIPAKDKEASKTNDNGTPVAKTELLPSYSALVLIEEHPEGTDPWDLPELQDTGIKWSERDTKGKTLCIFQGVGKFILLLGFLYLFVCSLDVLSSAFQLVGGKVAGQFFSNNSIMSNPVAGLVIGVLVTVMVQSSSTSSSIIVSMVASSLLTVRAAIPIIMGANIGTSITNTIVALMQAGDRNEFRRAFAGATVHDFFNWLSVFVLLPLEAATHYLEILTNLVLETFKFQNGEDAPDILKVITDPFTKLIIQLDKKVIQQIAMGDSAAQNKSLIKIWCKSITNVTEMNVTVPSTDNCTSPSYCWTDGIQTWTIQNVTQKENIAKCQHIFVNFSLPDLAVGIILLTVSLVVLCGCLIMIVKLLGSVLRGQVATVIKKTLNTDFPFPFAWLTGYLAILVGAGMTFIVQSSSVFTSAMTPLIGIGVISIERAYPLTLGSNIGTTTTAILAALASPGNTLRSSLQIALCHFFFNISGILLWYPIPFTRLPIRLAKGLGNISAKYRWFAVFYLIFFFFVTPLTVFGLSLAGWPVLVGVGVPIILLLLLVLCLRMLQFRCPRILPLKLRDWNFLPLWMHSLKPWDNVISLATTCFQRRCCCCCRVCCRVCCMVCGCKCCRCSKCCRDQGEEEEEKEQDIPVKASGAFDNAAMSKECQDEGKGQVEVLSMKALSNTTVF
The test can be described thus: flow cytometry on HEK293-6e cells transiently expressing mouse NaPi2b, 4 C, anti-human IgG Fc AF647 detection.

In a further test the target is T5, cynomolgus monkey NaPi2b (cynomolgus monkey, UniProt O95436 1-690 (human entry)).
T5 construct: Transiently expressed on HEK293-6e cells; also called Cyno NaPi2b
T5 chain: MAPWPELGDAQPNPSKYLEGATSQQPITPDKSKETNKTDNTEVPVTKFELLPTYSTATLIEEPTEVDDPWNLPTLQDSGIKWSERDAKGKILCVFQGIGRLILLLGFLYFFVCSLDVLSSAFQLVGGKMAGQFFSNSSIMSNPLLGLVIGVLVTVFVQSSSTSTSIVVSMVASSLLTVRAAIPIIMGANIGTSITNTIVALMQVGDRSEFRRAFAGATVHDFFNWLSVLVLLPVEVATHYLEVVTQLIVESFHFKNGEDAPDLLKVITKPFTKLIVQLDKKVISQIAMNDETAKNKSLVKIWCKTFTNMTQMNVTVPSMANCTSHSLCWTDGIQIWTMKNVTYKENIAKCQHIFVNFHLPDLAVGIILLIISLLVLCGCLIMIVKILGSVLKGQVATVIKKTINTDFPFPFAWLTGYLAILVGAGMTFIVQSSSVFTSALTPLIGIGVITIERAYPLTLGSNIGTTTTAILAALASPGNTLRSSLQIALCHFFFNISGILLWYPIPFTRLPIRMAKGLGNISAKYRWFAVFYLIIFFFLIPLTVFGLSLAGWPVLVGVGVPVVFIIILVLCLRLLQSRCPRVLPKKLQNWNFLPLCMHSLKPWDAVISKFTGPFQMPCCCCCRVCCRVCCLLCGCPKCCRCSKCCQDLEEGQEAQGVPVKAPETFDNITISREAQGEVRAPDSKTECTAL
The experiment in a line: flow cytometry on HEK293-6e cells transiently expressing cynomolgus NaPi2b, 4 C, anti-human IgG Fc AF647 detection.

T3 sequence (P12314 16-374): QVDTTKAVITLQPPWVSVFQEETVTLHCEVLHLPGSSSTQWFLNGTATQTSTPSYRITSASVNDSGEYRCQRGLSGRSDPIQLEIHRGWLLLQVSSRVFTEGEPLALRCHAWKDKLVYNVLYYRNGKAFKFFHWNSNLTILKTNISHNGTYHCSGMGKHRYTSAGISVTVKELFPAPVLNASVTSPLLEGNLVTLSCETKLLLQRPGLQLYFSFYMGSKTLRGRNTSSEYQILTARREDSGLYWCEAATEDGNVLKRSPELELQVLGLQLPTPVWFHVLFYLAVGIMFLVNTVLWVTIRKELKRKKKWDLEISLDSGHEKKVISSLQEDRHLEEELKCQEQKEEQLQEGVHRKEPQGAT
Method for FcgR1A: Briefly, the study consisted of three phases: phase (1) determination of assay screening conditions, phase (2) membrane proteome array (library) screen and phase (3) protein target validation. […] In phase (3), each protein target hit from the screen stage (potential off-target interactions) was assessed in titration experiment using flow cytometry.

B1: v29452 humanized anti-NaPi2b antibody (H1L3) (antibody, human IgG1, kappa, V domains shown)
VH: QVQLVQSGAEVKKPGASVKVSCKASGFTFTSYNVHWVRQAPGQGLEWMGAISPGNGDLSYAQKFQGRVTMTRDTSTSTVYMELSSLRSEDTAVYYCARGRTGMGAVDYWGQGTLVTVSS
VL: DVQMTQSPSSLSASVGDRVTITCRASQDVYSYLNWYQQKPGKAVKLLIYYTSRLQSGVPSRFSGSGSGTDYTLTISSLQPEDIATYYCQQYNIFPWTFGQGTKLEIKR
As for B1, the “NS-ELISA binding score (ratio of signal between antibody-treated and untreated)” value in test [1] was 1.34 ratio. For the same molecule, the “Bmax (MFI)” value in test [2] came out at 47800 MFI. In addition, in test [3], the Kd stood at 1.6 nM.

B2: v38591 humanized anti-NaPi2b antibody (antibody, human IgG1, kappa)
heavy: not shown
light: DVQMTQSPSSLSASVGDRVTITCRASQDVYSYLNWYQQKPGKAVKLLIYYTSRLQSGVPSRFSGSGSGTDYTLTISSLQPEDFATYYCQQYNIFPWTFGQGTKLEIKRTVAAPSVFIFPPSDEQLKSGTASVVCLLNNFYPREAKVQWKVDNALQSGNSQESVTEQDSKDSTYSLSSTLTLSKADYEKHKVYACEVTHQGLSSPVTKSFNRGEC
notes: also called humanized v38591 anti-NaPi2b (SLC34A2) variant
For the molecule B2, the “EC50 (read off the curve)” value in [4] is about 1 nM; in [5] it was about 0.7 nM. The Kd is 0.74 nM in [6], 1.39 nM in test [7] and 1.68 nM in [8]. Besides, the binding result with FcgR1A is recorded as “binds”.

B3: v22277, palivizumab (anti-RSV) negative control (antibody, human IgG1, kappa)
heavy 1: GQVTLRESGPALVKPTQTLTLTCTFSGFSLSTSGMSVGWIRQPPGKALEWLADIWWDDKKDYNPSLKSRLTISKDTSKNQVVLKVTNMDPADTATYYCARSMITNWYFDVWGAGTTVTVSSASTKGPSVFPLAPSSKSTSGGTAALGCLVKDYFPEPVTVSWNSGALTSGVHTFPAVLQSSGLYSLSSVVTVPSSSLGTQTYICNVNHKPSNTKVDKKVEPKSCDKTHTCPPCPAPELLGGPSVFLFPPKPKDTLMISRTPEVTCVVVDVSHEDPEVKFNWYVDGVEVHNAKTKPREEQYNSTYRVVSVLTVLHQDWLNGKEYKCKVSNKALPAPIEKTISKAKGQPREPQVYVYPPSRDELTKNQVSLTCLVKGFYPSDIAVEWESNGQPENNYKTTPPVLDSDGSFALVSKLTVDKSRWQQGNVFSCSVMHEALHNHYTQKSLSLSPG
heavy 2: not shown
light: GDIQMTQSPSTLSASVGDRVTITCKSQLSVGYMHWYQQKPGKAPKLLIYDTSKLASGVPSRFSGSGSGTEFTLTISSLQPDDFATYYCFQGSGYPFTFGGGTKLEIKRTVAAPSVFIFPPSDEQLKSGTASVVCLLNNFYPREAKVQWKVDNALQSGNSQESVTEQDSKDSTYSLSSTLTLSKADYEKHKVYACEVTHQGLSSPVTKSFNRGEC
notes: Heterodimeric Fc form of palivizumab (clones CL_#11009, CL_#11010, CL_#16635); also called neg control
For B3, the binding result with mouse NaPi2b and in the test with cynomolgus monkey NaPi2b was “no binding (tested: about 200 nM)” throughout.
